B1: CPEB3 Ribozyme (parent)
chain: UAACAGGGGGCCACAGCAGAAGCGUUCACGUCGCAGCCCCUGUCAGAUUCUGGUGAAUCUGCGAAUUCUGCUGUAUAUCUC

In this series the parent is B1. As to the kind of experiment: self-cleavage, relative activity (ratio to wild type); higher = more cleavage; in vitro, sequencing. In outline: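 For each CPEB3 ribozyme variant, relative activity is its cleaved/total read fraction divided by the unmutated ribozyme's. Barcoded error-prone PCR libraries were transcribed by T7 RNA polymerase (5 hours, 37°C) and held in DNase I for 15 min before an EDTA stop, with cleavage occurring throughout. Template-switching reverse transcription and Illumina sequencing were used to read the RNAs. A 5-read minimum applied, and results are the mean of three batches.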
As to UAACAGGGGGCCACAGUAGAAGCGUUCACGUCGCAGCCCCUGACAGAUUCUGGUGAAUCUGCGAAUUCUGCUGUAUAUCUC [C17U U43A], the self-cleavage is 0.98. As to UAACAGGGGGCCACAGUAGAAGCGUUCACGUCGCAGCCCCUGCCAGAUUCUGGUGAAUCUGCGAAUUCUGCUGUAUAUCUC [C17U U43C], the self-cleavage turned out to be 0.41.

With UAACAGGGGGCCACAGCCGAAGCGUUCACGUCGCAGCCCCUGUCAGAUUUUGGUGAAUCUGCGAAUUCUGCUGUAUAUCUC [A18C C50U], the self-cleavage came to 0.51. As for UAACAGGGGGCCACAGCCGAAGCGUUCACGUCGCAGCCCCUGUCAGAUUAUGGUGAAUCUGCGAAUUCUGCUGUAUAUCUC [A18C C50A], the figure is 0.12; as for UAACAGGGGGCCACAGCCGAAGCGUUCACGUCGCAGCCCCUGUCAGAUUCUGGUGAAUCUGCGAAUUCUGAUGUAUAUCUC [A18C C71A], 0.09; as for UAACAGGGGGCCACAGUAGAAGCGUUCACGUCGCAGCCCCUGUCAGAUUCUGGUGAAUCUGCGAACUCUGCUGUAUAUCUC [C17U U66C], 0.23.

Take UAACAGGGGGCCACAGCCGAAGCGUUCACGUCGCAGCCCCUGUCCGAUUCUGGUGAAUCUGCGAAUUCUGCUGUAUAUCUC [A18C A45C]: the self-cleavage is 0.21. With UAACAGGGGGCCACAGCCGAAGCGUUCACGUCGCAGCCCCUGUCUGAUUCUGGUGAAUCUGCGAAUUCUGCUGUAUAUCUC [A18C A45U] the figure was 0.1. With UAACAGGGGGCCACAGCCGAAGCGUUCACGUCGCAGCCCCUGUCGGAUUCUGGUGAAUCUGCGAAUUCUGCUGUAUAUCUC [A18C A45G] the figure was 0.29. Turning to UAACAGGGGGCCACAGUAGAAGCGUUCACGUCGCAGCCCCUGUCAGAUUCUGGUGAAUCUGCGAAUUCUGCCGUAUAUCUC [C17U U72C], the self-cleavage was found to be 0.74. With UAACAGGGGGCCACAGUAGAAGCGUUCACGUCGCAGCCCCUGUCAGAUUCUGGUGAAUCUGCGAAUUCUGCAGUAUAUCUC [C17U U72A] the figure was 0.21; with UAACAGGGGGCCACAGUAGAAGCGUUCACGUCGCAGCCCCUGUCAGAUUCUGGUGAAUCUGCGAAUUCUGCGGUAUAUCUC [C17U U72G], 0.4. With UAACAGGGGGCCACAGUAGAAGCGUUCACGCCGCAGCCCCUGUCAGAUUCUGGUGAAUCUGCGAAUUCUGCUGUAUAUCUC [C17U U31C] the figure was 0.42; with UAACAGGGGGCCACAGUAGAAGCGUUCACGUCGCAGCCCCUGUCAGAUUCUGGUGAAUCUGCGAAUUCUGCUGUAUAUCCC [C17U U80C], 0.85. Turning to UAACAGGGGGCCACAGUAGAAGCGUUCACGUCGCAGCCCCUGUCAGAAUCUGGUGAAUCUGCGAAUUCUGCUGUAUAUCUC [C17U U48A], the self-cleavage was 0.24.

For UAACAGGGGGCCACAGUAGAAGCGUUCACGUCGCAGCCCCUGUCAGACUCUGGUGAAUCUGCGAAUUCUGCUGUAUAUCUC [C17U U48C], the self-cleavage worked out at 0.31. With UAACAGGGGGCCACAGUAGAAGCGUUCACGUCGCAGCCCCUGUCAGAUUCUGGUGAAUCCGCGAAUUCUGCUGUAUAUCUC [C17U U60C] the figure was 0.21; with UAACAGGGGGCCACAGUAGAAGCGUUCACGUCGCAGCCCCUGUCAGAUUCUGGUGAAUCAGCGAAUUCUGCUGUAUAUCUC [C17U U60A], 0.23; with UAACAGGGGGCCACAGCCGAAGCGUUUACGUCGCAGCCCCUGUCAGAUUCUGGUGAAUCUGCGAAUUCUGCUGUAUAUCUC [A18C C27U], 0.21. With UAACAGGGGGCCACAGCCGGAGCGUUCACGUCGCAGCCCCUGUCAGAUUCUGGUGAAUCUGCGAAUUCUGCUGUAUAUCUC [A18C A20G] the figure was 0.44. As for UAACAGGGGGCCACAGCCGUAGCGUUCACGUCGCAGCCCCUGUCAGAUUCUGGUGAAUCUGCGAAUUCUGCUGUAUAUCUC [A18C A20U], the figure is 0.15. On to UAACAGGGGGCCACAGUAGAAGCGUUCACGUCGCAGCCCCUGUCAGAUUCUGGUGAAUCUGCGAAUUCUGCUGUACAUCUC [C17U U76C], for which the self-cleavage is 0.83.

On to UAACAGGGGGCCACAGCCGAAGCGUUCAUGUCGCAGCCCCUGUCAGAUUCUGGUGAAUCUGCGAAUUCUGCUGUAUAUCUC [A18C C29U], for which the self-cleavage turned out to be 0.31. As for UAACAGGGGGCCACAGCCGAAGCGUUCACGUCGCAGCCCCUGUCAGAUUCUGGUGAAUCUGUGAAUUCUGCUGUAUAUCUC [A18C C62U], the figure is 0.39; as for UAACAGGGGGCCACAGCCGAAGCGUUCGCGUCGCAGCCCCUGUCAGAUUCUGGUGAAUCUGCGAAUUCUGCUGUAUAUCUC [A18C A28G], 0.29; as for UAACAGGGGGCCACAGCCGAAGCGUUCCCGUCGCAGCCCCUGUCAGAUUCUGGUGAAUCUGCGAAUUCUGCUGUAUAUCUC [A18C A28C], 0.43.

For UAACAGGGGGCCACAGCCGAAGCGUUCUCGUCGCAGCCCCUGUCAGAUUCUGGUGAAUCUGCGAAUUCUGCUGUAUAUCUC [A18C A28U], the self-cleavage was 0.37. As for UAACAGGGGGCCACAGCCGAAGCGUUCACGUCGCAGCCCAUGUCAGAUUCUGGUGAAUCUGCGAAUUCUGCUGUAUAUCUC [A18C C40A], the figure is 0.34. With UAACAGGGGGCCACAGCCGAAGCGUUCACGUCGCAGCCCCUGUCAGGUUCUGGUGAAUCUGCGAAUUCUGCUGUAUAUCUC [A18C A47G] the figure was 0.26. As for UAACAGGGGGCCACAGCCGAAGCGUUCACGUCGCAGCCCCUGUCAGAUUCUGGUGAAUCUGCGAAUUAUGCUGUAUAUCUC [A18C C68A], the figure is 0.18. Consider UAACAGGGGGCCACAGUAGAAGCGUUCACGUCGCAGCCCCUGUCAGAUCCUGGUGAAUCUGCGAAUUCUGCUGUAUAUCUC [C17U U49C], for which the self-cleavage was determined as 0.15. As for UAACAGGGGGCCACAGCCGAAGCGUUCACGUCGCAGCCCCUGUCAGAUUCUGGUGAAUCUGCGAUUUCUGCUGUAUAUCUC [A18C A65U], the self-cleavage is 0.16. With UAACAGGGGGCCACAGCCGAAGCGUUCACGUCGCAGCCCCUGUCAGAUUCUGGUGAAUCUGCGAGUUCUGCUGUAUAUCUC [A18C A65G] the figure was 0.26. With UAACAGGGGGCCACAGCCGAAGCGUUCACGUUGCAGCCCCUGUCAGAUUCUGGUGAAUCUGCGAAUUCUGCUGUAUAUCUC [A18C C32U] the figure was 0.43.

Source of the values: the RNAGym collection of RNA variant scans (doi:10.1093/nar/gkz1192).
